Laboratory results taken from patent publication US20240277845A1 (XYPHOS BIOSCIENCES, published 2024).
Numbering of substitutions follows the chain as printed. In names and notes the source's numbering stands.

T1: ULBP1-Fc (UniProt Q9BZM6 26-216)
T1 construct: Bought reagent; also called Ligand-Fc fusion (R&D Systems); not shown: Fc of the bought fusion, not described
T1 sequence (looked up): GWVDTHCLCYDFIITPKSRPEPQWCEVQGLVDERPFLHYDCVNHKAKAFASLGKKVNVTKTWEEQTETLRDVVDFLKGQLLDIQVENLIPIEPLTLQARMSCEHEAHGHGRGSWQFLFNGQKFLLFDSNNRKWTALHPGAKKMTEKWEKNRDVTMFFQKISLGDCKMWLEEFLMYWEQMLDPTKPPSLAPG

T2: ULBP4-Fc (UniProt Q8TD07 31-225, limits assumed)
T2 construct: Bought reagent; also called Ligand-Fc fusion (R&D Systems); not shown: Fc of the bought fusion, not described
T2 sequence (looked up): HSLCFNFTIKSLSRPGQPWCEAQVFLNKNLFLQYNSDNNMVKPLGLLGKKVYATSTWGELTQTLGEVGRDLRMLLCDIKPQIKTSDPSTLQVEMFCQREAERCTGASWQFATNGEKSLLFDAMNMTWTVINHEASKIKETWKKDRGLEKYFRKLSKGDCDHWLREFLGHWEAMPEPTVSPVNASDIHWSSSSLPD

T3: ULBP3-Fc (UniProt Q9BZM4 30-217)
T3 construct: Bought reagent; also called Ligand-Fc fusion (R&D Systems); not shown: Fc of the bought fusion, not described
T3 sequence (looked up): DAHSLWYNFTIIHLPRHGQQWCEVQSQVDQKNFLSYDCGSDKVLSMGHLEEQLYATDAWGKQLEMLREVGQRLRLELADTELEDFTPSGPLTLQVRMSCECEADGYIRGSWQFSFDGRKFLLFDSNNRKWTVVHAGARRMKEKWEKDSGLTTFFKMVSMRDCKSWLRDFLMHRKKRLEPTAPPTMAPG

T4: ULBP2-Fc (UniProt Q9BZM5 26-217)
T4 construct: Bought reagent; also called Ligand-Fc fusion (R&D Systems); not shown: Fc of the bought fusion, not described
T4 sequence (looked up): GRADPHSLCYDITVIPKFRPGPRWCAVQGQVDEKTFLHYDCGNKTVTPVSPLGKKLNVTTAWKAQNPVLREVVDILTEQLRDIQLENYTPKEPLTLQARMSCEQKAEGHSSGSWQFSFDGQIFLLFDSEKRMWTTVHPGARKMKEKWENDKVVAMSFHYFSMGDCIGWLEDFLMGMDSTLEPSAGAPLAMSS

T5: MICB-Fc (UniProt Q29980 23-298, limits assumed)
T5 construct: Bought reagent; also called Ligand-Fc fusion (R&D Systems); not shown: Fc of the bought fusion, not described
T5 sequence (looked up): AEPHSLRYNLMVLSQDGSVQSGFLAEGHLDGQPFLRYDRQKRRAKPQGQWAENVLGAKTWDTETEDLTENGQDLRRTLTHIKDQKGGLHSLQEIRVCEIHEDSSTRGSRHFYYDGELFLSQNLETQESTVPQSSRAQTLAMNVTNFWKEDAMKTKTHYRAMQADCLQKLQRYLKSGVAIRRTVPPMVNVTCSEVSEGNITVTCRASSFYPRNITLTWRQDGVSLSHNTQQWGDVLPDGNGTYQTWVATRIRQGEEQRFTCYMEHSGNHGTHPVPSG

T6: Fc-wtNKG2D (human, UniProt P26718 78-216)
T6 construct: range 78-216; NKG2D ectodomain fused to the C-terminus of human IgG1 Fc; dimeric secreted protein; biotinylated in some ELISAs; also called wild-type NKG2D; Fc-NKG2D
T6 sequence: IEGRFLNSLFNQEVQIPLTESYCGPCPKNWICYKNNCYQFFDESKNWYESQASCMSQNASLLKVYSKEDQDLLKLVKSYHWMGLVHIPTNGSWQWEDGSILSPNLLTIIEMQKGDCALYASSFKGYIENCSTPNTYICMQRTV

T7: mouse NKG2D (mouse, UniProt O54709 94-232, limits assumed)
T7 construct: also called mouse wild-type NKG2D
T7 sequence (looked up): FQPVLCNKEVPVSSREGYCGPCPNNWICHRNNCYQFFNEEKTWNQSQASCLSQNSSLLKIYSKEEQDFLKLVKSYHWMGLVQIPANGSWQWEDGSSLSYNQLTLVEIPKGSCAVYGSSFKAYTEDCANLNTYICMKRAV

B1: Fc-iNKG2D.YA (Fc fusion, human, not shown: a dimerising Fc or GST)
chain: T6 sequence with Y79A
notes: range 78-216; also called Y152A mutant
B2: Rituximab antibody (ADCC-deficient) (antibody, V domains shown)
VH: QVQLQQPGAELVKPGASVKMSCKASGYTFTSYNMHWVKQTPGRGLEWIGAIYPGNGDTSYNQKFKGKATLTADKSSSTAYMQLSSLTSEDSAVYYCARSTYYGGDWYFNVWGAGTTVTVSA
VL: QIVLSQSPAILSASPGEKVTMTCRASSSVSYIHWFQQKPGSSPKPWIYATSNLASGVPVRFSGSGSGTSYSLTISRVEAEDAATYYCQQWTSNPPTFGGGTKLEIK
notes: also called parent rituximab antibody; Rit.P; not shown: human IgG1 heavy-chain constant region, ADCC-deficient
B3: Rituximab.LC-U2S3 MicAbody (bispecific antibody, human IgG1, kappa, N297A)
heavy: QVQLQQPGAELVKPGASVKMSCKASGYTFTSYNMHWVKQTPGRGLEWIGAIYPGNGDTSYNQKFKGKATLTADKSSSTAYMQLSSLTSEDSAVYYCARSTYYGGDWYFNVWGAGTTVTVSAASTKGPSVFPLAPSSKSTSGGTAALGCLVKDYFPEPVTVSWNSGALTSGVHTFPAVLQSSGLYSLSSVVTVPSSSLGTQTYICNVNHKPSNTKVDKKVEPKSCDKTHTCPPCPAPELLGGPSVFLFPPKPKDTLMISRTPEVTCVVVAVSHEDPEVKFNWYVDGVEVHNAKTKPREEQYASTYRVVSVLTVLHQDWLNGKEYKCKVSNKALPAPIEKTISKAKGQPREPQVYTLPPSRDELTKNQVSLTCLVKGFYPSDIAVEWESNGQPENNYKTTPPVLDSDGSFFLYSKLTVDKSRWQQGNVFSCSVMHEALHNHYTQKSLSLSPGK
light: QIVLSQSPAILSASPGEKVTMTCRASSSVSYIHWFQQKPGSSPKPWIYATSNLASGVPVRFSGSGSGTSYSLTISRVEAEDAATYYCQQWTSNPPTFGGGTKLEIKRTVAAPSVFIFPPSDEQLKSGTASVVCLLNNFYPREAKVQWKVDNALQSGNSQESVTEQDSKDSTYSLSSTLTLSKADYEKHKVYACEVTHQGLSSPVTKSFNRGECAPTSSSGGGGSEPHSLSYDITVIPKFRPGPRWCAVQGQVDEKTFLHYDCGNKTVTPVSPLGKKLNVTTAWKAQNPVLREVVDILTEQLWDIQLENYTPKEPLTLQARMSCEQKAEGHSSGSWQFSFDGQIFLLFDSEKRMWTTVHPGARKMKEKWENDKVVATKLYLWSMGDCIGWLEDFLMGMDSTLEPS
notes: also called Rit-S3; Rit.S3
B4: Rituximab light-chain fusion of U2S3 (NQ) (bispecific antibody)
heavy: QVQLQQPGAELVKPGASVKMSCKASGYTFTSYNMHWVKQTPGRGLEWIGAIYPGNGDTSYNQKFKGKATLTADKSSSTAYMQLSSLTSEDSAVYYCARSTYYGGDWYFNVWGAGTTVTVSAA
light: B3 light with N264Q, N278Q
notes: also called Rit.NQ; Rit.S3.NQ; not shown: human IgG1 heavy-chain constant region, ADCC-deficient
B5: His-tagged monomeric U2S3 (ligand)
chain: EPHSLSYDITVIPKFRPGPRWCAVQGQVDEKTFLHYDCGNKTVTPVSPLGKKLNVTTAWKAQNPVLREVVDILTEQLWDIQLENYTPKEPLTLQARMSCEQKAEGHSSGSWQFSFDGQIFLLFDSEKRMWTTVHPGARKMKEKWENDKVVATKLYLWSMGDCIGWLEDFLMGMDSTLEPHHHHHH
notes: also called orthogonal U2S3 ligand

Legend:
ULBP1-Fc = molecular target: T1, ULBP1-Fc; test: ELISA; ligand-Fc coated, biotinylated Fc-iNKG2D.YA titrated, streptavidin-HRP; x axis printed as 'nM ligand-Fc'
ULBP4-Fc = molecular target: T2, ULBP4-Fc; test: as above
MICA-Fc = molecular target: T8, MICA-Fc (UniProt Q29983 24-308); test: as above
T8 construct: Bought reagent; also called Ligand-Fc fusion (R&D Systems); not shown: Fc of the bought fusion, not described
T8 sequence (Q29983 24-308 limits assumed): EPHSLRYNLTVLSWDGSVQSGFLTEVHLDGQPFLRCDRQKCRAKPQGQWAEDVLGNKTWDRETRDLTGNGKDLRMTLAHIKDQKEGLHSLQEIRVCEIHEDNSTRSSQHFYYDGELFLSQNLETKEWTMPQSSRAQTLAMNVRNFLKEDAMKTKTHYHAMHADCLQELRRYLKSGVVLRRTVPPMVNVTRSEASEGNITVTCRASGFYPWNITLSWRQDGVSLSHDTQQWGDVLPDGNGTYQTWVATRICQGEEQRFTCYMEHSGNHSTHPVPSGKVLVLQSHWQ

ULBP3-Fc = molecular target: T3, ULBP3-Fc; test: as above
ULBP2-Fc = molecular target: T4, ULBP2-Fc; test: as above
MICB-Fc = molecular target: T5, MICB-Fc; test: as above
Fc-wtNKG2D [1] = molecular target: T6, Fc-wtNKG2D; test: Octet BLI; Fc-wtNKG2D captured on AHC tips, two-fold dilution series from 50 nM
Procedure: (§1) YA were captured with anti-human IgG Fc capture (AHC) biosensor tips then associated with a two-fold dilution series of MicAbody starting at 50 nM. The y-axes corresponding to binding responses were set to the same scale for all sensograms.

Fc-iNKG2D.YA [2] = molecular target: B1; test: Octet BLI; Fc-iNKG2D.YA captured on AHC tips, two-fold dilution series from 50 nM
Procedure: as §1

Fc-iNKG2D.YA [3] = molecular target: B1; test: ELISA; wells coated with Fc-iNKG2D.YA, Rituximab.LC-U2S3 titrated
Fc-iNKG2D.YA [4] = molecular target: B1; test: Octet BLI; Fc-iNKG2D.YA captured on AHC tips, two-fold dilution series of MicAbody from 50 nM
Procedure: as §1

Fc-iNKG2D.YA [5] = molecular target: B1; test: ELISA; 'iNKG2D.YA capture; CD20(Rit)-MicAb titration; anti-kappa-HRP detection'
mouse NKG2D = molecular target: T7, mouse NKG2D; test: ELISA on mouse NKG2D, MicAbody titrated; y axis 'Mouse NKG2D binding' (absorbance)
Fc-wtNKG2D [6] = molecular target: T6, Fc-wtNKG2D; test: ELISA on wild-type NKG2D (FIG. 19); ELISA on wild-type NKG2D (FIG. 19), Rituximab light-chain fusion
Fc-iNKG2D.YA [7] = molecular target: B1; test: Octet BLI, Fc-iNKG2D.YA on AHC tips, His-tagged monomer (FIG. 4C)
Fc-iNKG2D.YA [8] = molecular target: B1; test: Octet BLI; Fc-iNKG2D.YA captured on AHC tips, dilution series of His-tagged monomeric ligand
Fc-wtNKG2D [9] = molecular target: T6, Fc-wtNKG2D; test: Octet BLI; Fc-wtNKG2D captured on AHC tips, dilution series of His-tagged monomeric ligand

B1
binding result (ULBP1-Fc): no binding (tested: about 2000 nM)
binding result (ULBP4-Fc): no binding (tested: about 2000 nM)
binding result (MICA-Fc): no binding (tested: about 2000 nM)
binding result (ULBP3-Fc): no binding (tested: about 2000 nM)
binding result (ULBP2-Fc): no binding (tested: about 2000 nM)
binding result (MICB-Fc): no binding (tested: about 2000 nM)

B2
binding result (Fc-wtNKG2D [1]): no binding (tested: 50 nM)
binding result (Fc-iNKG2D.YA [2]): no binding (tested: 50 nM)

B3
EC50 (read off the curve) (Fc-iNKG2D.YA [3]): ~0.03 nM
Kd (Fc-iNKG2D.YA [4]): 0.01 nM
EC50 (read off the curve) (Fc-iNKG2D.YA [5]): ~0.06 nM
EC50 (read off the curve) (mouse NKG2D): ~40 nM

B4
binding result (Fc-wtNKG2D [6]): no binding
EC50 (read off the curve) (Fc-iNKG2D.YA [5]): ~0.04 nM

B5
fold higher affinity than wild-type ULBP2 to wtNKG2D (Fc-iNKG2D.YA [7]): 10 fold
Kd (Fc-iNKG2D.YA [8]): 28 nM
binding result (Fc-wtNKG2D [9]): no binding (tested: not printed on the sheet)
